The source of these data is the nanobody polyreactivity screen of Harvey et al. (2022).

This data set is described as follows: yeast display, Sf9 membrane polyspecificity reagent, FACS + sequencing; frameworks hold sequencing errors. In a few lines:
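Nanobodies came from a synthetic yeast display library in Saccharomyces cerevisiae BJ5465, induced with galactose for 36–48 hours and stained for 1 hour at 4 °C with 10% biotinylated, detergent-solubilized Sf9 membrane reagent. Cells were enriched on streptavidin microbeads and then FACS-sorted, with low and high (top ~1%) gates set on anti-HA fluorescence for expression and streptavidin fluorescence for reagent binding. Each polyreactivity label reflects the gate a clone came from. Genes were amplified by colony PCR, sequenced by MiSeq 2 × 250 and filtered by CDR length.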
On to “QVQLVESGGGLVQAGGSLRLSCAASGSTFTYYAMGWYRQAPGKERELVASISGSGSRTYYADSVKGRFTISRDTAKNTVYLQMNSLTPEDTAVYSCAARFYVRWYYYGSYANYWGQGTQVTVSS”, for which the “polyreactivity (PSR sort gate)” value is “high polyreactivity”.
On to “QVQLVESGGGLVQAGGSLRLSCAASGSTFTYYAMGWYRQARGKERELVAAISSGGSTYYADSVKGRFTISRDNAKNTDYLQMNSLKPEDTAVYYCAARGYYGKFSGTGYWGQGTQVTVSS”, for which the “polyreactivity (PSR sort gate)” value is “high polyreactivity”.
For “QVQLVESGGGLVQAGGSLRLSCAASGSTFVAYTMGWYRQAPGKERELVAAITKRGSSTYYADSVKGRFTISRDNAKNTVYLHMNSLKPEDTAVYYCAAARSLKSYEGDYWGQGTQVTVSS” the value was “high polyreactivity”; for “QVQLVESGGGLVQAGGSLRLSCAASGSTFVDNAMGWCRQAPGKERELVADISSGGSTYYADSVKGRFTISRDNAKNTVYLQMNSLKPEDTAVYYCAARGVYRRGKYNSWGQGTQVTVSS”, “high polyreactivity”.
Turning to “QVQLVESGGGLVQAGGSLRLSCAASGSTFVDNAMGWYRQAPGKERELVAAITSSGGSTYYADSVKGRFTISRDNAQNTVYLQMNSLKPEDTAVYYCAADEWIVHDGYYSSYYYWGQGTQVTVSS”, the “polyreactivity (PSR sort gate)” value was “low polyreactivity”.
For “QVQLVESGGGLVQAGGSLRLSCAASGSTFVDNAMGWYRQAPGKERELVADISSGGSTYYADSVKGRFTISRDNAKNTVYLQMNSLKPEDTAVYYCAARRITSTDEYYWGQGTQVTVSS” the value was “high polyreactivity”; for “QVQLVESGGGLVQAGGSLRLSCAASGSTFVDYAMGWYRQAPGKEREFVAAISFSGDSTYYADSVKGRFTISRDNAKNSVYLQLNSLKPEDTAVYYCAASRPYYNRQYYRSWRDDYWGQGTQVTVSS”, “low polyreactivity”.
Regarding “QVQLVESGGGLVQAGGSLRLSCAASGSTFVFYTMGWYRPAPGKERELVAGISRNGGSTYYADSVKGRFTISRDNAKNTVYLQMNSLKTEDSAVYYCAALTWSRAYYSRKFYYWGQGTQVTVSS”, the “polyreactivity (PSR sort gate)” value was “high polyreactivity”.
For “QVQLVESGGGLVQAGGSLRLSCAASGSTFVGNAKGWYRQAPGKERELVAAITGGGGSTYYADSVKGRFTISRDNAKNTVYLQMNSLKPEDTAVYYCARDRTDYYVCYVRYYYWGQGTQVTVSS” the value was “low polyreactivity”; for “QVQLVESGGGLVQAGGSLRLSCAASGSTFVGNAMGSYRQAPGKERELVATISNSGGRTYYADSVKGRFTISRDNAKNPVYLQRNSLKPEDTAVYYCPADHPAFGPGYSFDYWGQGTQVTVSS”, “low polyreactivity”; for “QVQLVESGGGLVQAGGSLRLSCAASGSTFVGNSMGWYRKAPGKERELVAAISGSAGRTYYADSVKGRFTISRDNAKNTVYLQMNSLKPEDTAFYYCNKRYRGGVVYSRYDYWGQGTQVTVSS”, “low polyreactivity”.
For “QVQLVESGGGLVQAGGSLRLSCAASGSTFVGNVMGWYRQAPGKERELVATISRSGGRTYYADSVKGRFTISRDNAKNTVYLQMNSLKPEDTAVYYCAAGFVYTTASRWGGRTRYDYWGQGTQVTVSS” the value was “high polyreactivity”; for “QVQLVESGGGLVQAGGSLRLSCAASGSTFVGYAMGWYRHAPGKERELVAAISSSGGRTNYADSVKGRFTISRDNAKNTVYLQMNSLKPEDTAVYYCAAKAYRSPVYYWGQGTQVTVSS”, “high polyreactivity”; for “QVQLVESGGGLVQAGGSLRLSCAASGSTFVGYAMGWYRPAPGKDRELVADIDSIGGSTYYADSVKGRFTISRDNAKNTVYVQMNSPKPEDTAVYYCAKTWYPWSRSGYYRRYDSWGQGTQVTVSS”, “low polyreactivity”.
With “QVQLVESGGGLVQAGGSLRLSCAASGSTFVGYAMGWYRQAPGKERELVAAISGRGGSTYYADSVKGRFTISRDNAKNTVYLQMNSLKPEDTAVYYCNARRRKTVPNYIYNYWGQGTQVTVSS”, the “polyreactivity (PSR sort gate)” value is “high polyreactivity”.
For “QVQLVESGGGLVQAGGSLRLSCAASGSTFVGYAMGWYRQAPGKERELVAAISRSGGRTYYADSVKGRFTISRDNAKNTVYLQMNSLKPEDTAVYYCYPYYIASTFDYWGQGTQVTVSS” the value was “high polyreactivity”; for “QVQLVESGGGLVQAGGSLRLSCAASGSTFVGYAMGWYRQAPGKERELVADIDSIGGSTYYADSVKGRFTISRDNAKNTVYLQMNSMKPEDTAVYYCAARRFDTALVLYDYWGQGSQVTVSS”, “low polyreactivity”.
For “QVQLVESGGGLVQAGGSLRLSCAASGSTFVINAMGWYRQAPGKERELVAAISYDGGGTYYADSVKGRFTISRDNAKNTVYLQMNSLKPEDTAGYYCAAENFYPYTYYASDYWGQGTHVTVSS” the value was “high polyreactivity”.
For “QVQLVESGGGLVQAGGSLRLSCAASGSTFVIYAMGWYIQAPGKERELVAAINSGVSTYADSVKGRFTISRDNAKNTVYLQMNSLKPEDTAVYYCNAVSRPPYGPVFSAPAGGSWGQGTQVTVSS” the value was “low polyreactivity”.
Turning to “QVQLVESGGGLVQAGGSLRLSCAASGSTFVIYAMGWYRQAPGKERELVASIRGRTGSTYYADSVKGRFTISRDNAKNTVYLQMNSLKPEDTAVYYCAATPGYKSKMDYWGQGTQVTVSS”, the “polyreactivity (PSR sort gate)” value is reported as “high polyreactivity”.
With “QVQLVESGGGLVQAGGSLRLSCAASGSTFVIYGMGWYRQAPGKERELVADITWIGGSTYYADSVKGRFTISRDNAKNTVYLQMNSLKPEDTAVYYCAADAAYLYLYNWYDTEDDYWGQGTQVTVSS”, the “polyreactivity (PSR sort gate)” value was “low polyreactivity”.
In the case of “QVQLVESGGGLVQAGGSLRLSCAASGSTFVIYTMGGSRQAPGKERELVAAISWSGGITRYADSVKGRFTISRDIAKNTVYLQMNSLKPEDTAVYYCNASQWPSRFDYWGQGTQVSVSS” it was “low polyreactivity”; in that of “QVQLVESGGGLVQAGGSLRLSCAASGSTFVKNDMGWYRQAPGKERELVAANSGGSTNYADSVTGRFTISRDNAKNTVYLQMNSLKPEDTAVYYCNAAVITKYAGRGGRPTGRMYYWGQGTQVTVSS”, “low polyreactivity”.
In the case of “QVQLVESGGGLVQAGGSLRLSCAASGSTFVKYAMGWYRQAPGKERELVAAIDSSGGSTYYADSVKGRFTISRDNAKNTVYLQMNSLKAEDTAVYYCAAPRGNRLKGLEGYYWGQGTQVTVSS”, the “polyreactivity (PSR sort gate)” value is reported as “high polyreactivity”.
For “QVQLVESGGGLVQAGGSLRLSCAASGSTFVKYAMGWYRQAPGKERELVAAISGYSGRTYYADSVKGRFTISRDNAKNTVYLQMNSLKPEDTAVYYCAAEWDDGRSWYWYYLVGFEYWGQGTQVTVSS” the value was “high polyreactivity”; for “QVQLVESGGGLVQAGGSLRLSCAASGSTFVLYAMGWYRQAPGKERELVAAITKRGGNTYYADSVKGRFTISRDNAKNTVYLQMNSLKPEDTAVYYCAADHVRSPFDSWGQGTQVTVSS”, “low polyreactivity”.
Turning to “QVQLVESGGGLVQAGGSLRLSCAASGSTFVPNAMGWYRQAPGKEREFVAAIRVSCDNTYYADSVKGRFTISRDNAKNTDYLQMNSLKPEDTAVYYCAATGTVLGSVDYWGQGSQVTVSS”, the “polyreactivity (PSR sort gate)” value is given as “low polyreactivity”.
For “QVQLVESGGGLVQAGGSLRLSCAASGSTFVPNAMGWYRQAPGKERELVAGISWSGGGTSYADSVKGRFTISRDNAKNTVYLQMNSLKPEDTAVYYCAVVGYEQNEYDYWGQGTQVTVSS” the value was “low polyreactivity”; for “QVQLVESGGGLVQAGGSLRLSCAASGSTFVPYAMGWYRQAPGKERELVASITYSGGSTSYADSVKGRVTISRDTAKNTVYLQMNSLKPEDTAVNYCAAVPWVVYSGYDYWGQGTQVTVSS”, “low polyreactivity”; for “QVQLVESGGGLVQAGGSLRLSCAASGSTFVPYTMGWYRQAPGKERELVAAISGSGGTDYADSVKGRFTISRDNAKNTVYLQMNSLKPEDTAVYYCATDGLDFWFIYDYWGQGTHVTVSS”, “low polyreactivity”.
For “QVQLVESGGGLVQAGGSLRLSCAASGSTFVQYAMGWYRQAPGKERELVAAISGSGGRTYYADSVKGRFTLSRDNAKNTVYSHMNSLKPEDTAVYYCAAAYNTDFYYWGQGTQVTVSS” the value was “high polyreactivity”.
In the case of “QVQLVESGGGLVQAGGSLRLSCAASGSTFVRNAMGWYRQAPGKEREFVASISSTSGRTYYADSVKGRFTISRDNAKNTVYLQMNRLKPEDTAVYYCAADVPPKYRHRYTLYDYWGQGTQVTVSS” it was “low polyreactivity”; in that of “QVQLVESGGGLVQAGGSLRLSCAASGSTFVRNAMGWYRQAPGKERELVAAISRSGGRTYYADSVKGRFTISRDNAKNTVYLQMNSLKPEDTAVYYCAKKRSKPISFDYWGQGTQVTVSS”, “high polyreactivity”.
Take “QVQLVESGGGLVQAGGSLRLSCAASGSTFVRNAMGWYRQAPGKERELVAAITSSGGSTYYADSVKGRFTISRDNAKNTVYLQMNSLKPEDTAVYYCAKRRYYRYDYWGQGTQVTVSS”: the “polyreactivity (PSR sort gate)” value is listed as “low polyreactivity”.
For “QVQLVESGGGLVQAGGSLRLSCAASGSTFVRNAMGWYRQAPGKERELVAAITSSGGSTYYADSVKGRFTISRDNAMKTVYLQMNSLKPEDTAVYYCNAELGSDTANYDYWGQGTQVTVSS” the value was “low polyreactivity”; for “QVQLVESGGGLVQAGGSLRLSCAASGSTFVRYAKGWYRQAPGKERELVAGISRRSGRTYYADSVKGRFTISRDNAKNTVYLQMNSLKPEDTAVYYCAARGIGGYEYWGQGTQVTVSS”, “high polyreactivity”; for “QVQLVESGGGLVQAGGSLRLSCAASGSTFVRYAMGWYRQAPGKERELVAAIDGGGTTKYADSVKGRFTISRDNAKNTVYLQMNSLKPEDTSVYYCAADQVWGYDSWGQGTQVTVSS”, “low polyreactivity”.
As for “QVQLVESGGGLVQAGGSLRLSCAASGSTFVRYAMGWYRQAPGKERELVAAISGSGGRTYYADSVKGRFTISRDNAKNTVYLQMYSLKPEDTAVYYCATSTAGGRQTVSQYRYYWGQGTQVTVSS”, the “polyreactivity (PSR sort gate)” value is on record as “high polyreactivity”.
Regarding “QVQLVESGGGLVQAGGSLRLSCAASGSTFVRYAMGWYRQAPGKERELVAAISSGGSRTYYADSVKGRFTISRDNAKNTVYLQMNSLKPEDTAVYYCATVSTYYHYRRYDYWGQGTQVTVSS”, the “polyreactivity (PSR sort gate)” value is on record as “high polyreactivity”.
With “QVQLVESGGGLVQAGGSLRLSCAASGSTFVRYDMGWYRQAPGKERELVADISWSGVSTYADSVKGRFTISRDNAKNTVYLQMNSLKPEDTAVYYCAKDSDLYQRGGYYWGQGTQVTVSS”, the “polyreactivity (PSR sort gate)” value is “low polyreactivity”.
